The target of assay [1] is T1, human ROR1 on cells (HEK293T-hROR1, PANC-1, A549) (human, UniProt Q01973 30-937).
T1 construct: whole, on cells; one molecule for the three cell lines; also called huROR1; cell surface ROR1
The assay can be described thus: flow cytometry, A549 cells. The protocol:
(§1) In brief, anti-ROR1 antibodies were serially diluted in staining buffer (PBS containing 2% FBS). Antibody solution was incubated with 1×10⁵ cells at 4° C. for 1 hour. […] After 1-hour incubation at 4° C., cells were washed twice with staining buffer and subjected to flow cytometry. PR000374 (Bench marker 1) and non-relevant IgG isotype control (Crownbio) were used as positive and negative controls, respectively.

Assay [2] has as its target T2, Human ROR1-ECD-his (Acro Biosystems RO1-H522y) (human, UniProt Q01973 30-406).
T2 construct: extracellular domain; bought protein; also called hROR1-ECD-his; hu-ROR1-ECD-his
The assay can be described thus: BLI, ROR1-His on HIS1K sensor, antibody in solution. On the procedure: In the example, binding kinetics of anti-ROR1 antibodies to soluble ROR1 protein were analyzed by using Bio-Layer Interferometry (BLI) analysis on Fortebio Octet Red384 instrument (Fortebio).
In BLI analysis, recombinant anti-ROR1 antibodies was serially diluted with 10× kinetics buffer (Fortebio). Human ROR1-His proteins were diluted to 20 nM. Then the diluted antibodies, ROR1 proteins and regeneration buffer (10 mM glycine HCl pH 1.5) were added to 96-well plates (Greiner). Rate constants for association and dissociation were measured using HIS1K sensor (Fortebio). The sensor surface was regenerated after each binding experiment with regeneration buffer. The traces were processed using Octet Data Analysis Software (version 11.0, Pall ForteBio, CA, USA).

In assay [3] the target is T3, cynomolgus ROR1 on CHO-K1-cynoROR1 cells (cynomolgus monkey, UniProt A0A2K5WTX7 30-937).
T3 construct: whole, on cells
The experiment in a line: flow cytometry, CHO-K1-cynoROR1 cells. On the procedure:
as §1

The target in assay [4] is T2, Human ROR1-ECD-his (Acro Biosystems …). The experiment in a line: ELISA, plate coated with hu-ROR1-his at 1 µg/mL. The protocol: (§2) Binding of recombinant anti-ROR1 antibodies to hu-ROR1-ECD-his was tested by ELISA. In brief, 1 μg/mL hu-ROR1-ECD-his was added to the 96-well plate, 100 μL each well, incubated at 4° C. overnight, washing the plates with 1×PBST 3 times, 300 ul/well, blocking the plates with 2% BSA in 1×PBST, 200 ul/well at 37° C. for 1 hour, anti-ROR1 antibodies were serially diluted in staining buffer (PBS containing 2% BSA). Antibody solution was added to the plate and incubates at 37° C. for 1 hour, washing the plates with 1×PBST 3 times, 300 ul/well, adding secondary antibody 100 ul/well and incubate at 37° C. for 1 hour, washing the plates with 1×PBST 3 times, 300 ul/well and then add 100 ul/well TMB for about 5 min, stop the reaction by adding 100 ul/well 2M H₂SO₄, read the plates with Molecular device spectra max plus384 at 450 nm and 570 nm.

The target is the same in assay [5]. The assay can be described thus: ELISA, coated hu-ROR1-ECD-his. On the procedure: as §2
Assay [6] concerns the target T3, cynomolgus ROR1 on CHO-K1-cynoROR1 cells. The assay can be described thus: flow cytometry on CHOK1-cynoROR1 cells, MFI (Mean) [bottom panel, letter not given]. The protocol:
(§3) Binding of recombinant anti-ROR1 antibodies to human or cynomolgus ROR1-overexpressing cells was tested by flow cytometry. In this example, ROR1-expressing cell lines are HEK293T cell lines that had been transfected to express human ROR1 on the surface (HEK293T-hu ROR1, KYINNO BIOTECHNOLOGY CO., LTD, Catalog #KC-1018), CHO-K1 cell lines that had been transfected to express cynomolgus ROR1 (CHOK1-cyno ROR1), PANC-1 (ATCC, catalog: CRL-1469) or A549 cell lines (Shanghai Institute of Biochemistry and Cell Biology, Chinese Academy of Sciences).
as §1

Assay [7] has as its target T1, human ROR1 on cells (HEK293T-hROR1, …). The experiment in a line: flow cytometry, PANC-1 cells. The protocol: as §1
Assay [8] concerns the target T4, hu-ROR2-ECD-his (Acrobiosystems RO2-H52E5) (human, UniProt Q01974 34-403).
T4 construct: extracellular domain; bought protein; also called Human ROR2 his-tagged protein; Human ROR2, His Tag
The assay can be described thus: ELISA, plate coated with hu-ROR2-his at 1 µg/mL. The protocol:
as §2, with “1” for “Binding of recombinant anti-ROR1 antibodies to hu-ROR1-ECD-his was tested by ELISA. In brief, 1”, “hu-ROR2-ECD-his (Acrobiocystems, RO2-H52E5)” for “hu-ROR1-ECD-his”

Assay [9] has as its target T1, human ROR1 on cells (HEK293T-hROR1, …). The assay can be described thus: flow cytometry on HEK293T-hROR1 cells, MFI (Mean). The protocol:
as §3, §1

The target is the same in assay [10]. The assay can be described thus: flow cytometry, HEK293T-hROR1 cells. On the procedure: as §1
Assay [11] shares this target. The assay can be described thus: flow cytometry on PANC-1 cells, MFI (FITC-A Median). On the procedure:
as §3, §1

The target in assay [12] is T3, cynomolgus ROR1 on CHO-K1-cynoROR1 cells. The assay can be described thus: flow cytometry, CHO-K1-cynoROR1 cells. The protocol:
as §3, §1
This is another data set of the same source.

Assay [13] addresses T1, human ROR1 on cells (HEK293T-hROR1, …). The experiment in a line: flow cytometry, PANC-1 cells. The protocol:
as §1
Binding activity of the variants to PANC-1 cells were tested using the same method described in example 5.1. The results were shown in FIGS. 7-8 and Table 11 and Table 12.
The source holds these as a separate data set.

Assay [14] shares this target. The assay can be described thus: flow cytometry on PANC-1 cells, MFI (Median-APC) [middle panel, letter not given].
The target of assay [15] is T4, hu-ROR2-ECD-his (Acrobiosystems …). The assay can be described thus: BLI, antibody on AHC sensor, ROR2-His in solution. The protocol: In the example, binding kinetics of anti-ROR1 antibodies to soluble ROR2 protein were analyzed by using Bio-Layer Interferometry (BLI) analysis on Fortebio Octet Red384 instrument (Fortebio). […] The captured biosensors were then dipped in wells containing 2-fold serial dilutions of antigen proteins to detect association signals, followed by dissociation steps in wells containing 1× kinetic buffer. Human ROR2 his-tagged protein (Acrobiosystems, #RO2-H52E5) was diluted from 600 nM to 37.5 nM; the association phase was 180 seconds, and the dissociation phase was 180 seconds. The sensorgrams were recorded and the reference signals were subtracted before curve fitting using ForteBio Data Analysis 11.0 software. Association rates (kₒₙ) and dissociation rates (kdis) were calculated using a simple one-to-one Langmuir binding model. The equilibrium dissociation constant (KD) was calculated as the ratio of kdis/kₒₙ.

For assay [16], the target named is T2, Human ROR1-ECD-his (Acro Biosystems …). The assay can be described thus: BLI in-tandem, row = 1st Ab; competitor (2nd Ab): PR005338. The source says:
(§4) To determine if anti-ROR1 antibodies bind to human ROR1 on different or approximate binding epitopes, the ForteBio Octet® RED96e platform was used to perform epitope competition experiments on the anti-ROR1 antibodies. Human ROR1 protein (Acrobiosystems, #RO1-H522y) was biotinylated and then captured onto SA biosensors (ForteBio, #18-5020) to reach loading level of 0.3-0.4 nm. The in-tandem competition assay format was applied and it contains two association steps. Firstly, the antigen-loaded biosensors bind to each antibody (a.k.a, First antibody, 1st Ab) with a saturating concentration of 200 nM for 180 seconds to reach equilibrium and then secondly bind to the competing antibodies (a.k.a, Second antibody, 2nd Ab) of 200 nM for 180 seconds. The second binding signals were recorded as the 100% signal of each antibody when the first antibodies were replaced by kinetics buffer. All the binding data were analyzed using ForteBio Data Analysis 11.0 software. The inhibition rate is calculated by the following formula: […]

For assay [17] the target is unchanged. The experiment in a line: BLI, antibody on AHC sensor, ROR1-His 5-80 nM in solution. On the procedure: The captured biosensors were then dipped in wells containing 2-fold serial dilutions of antigen proteins to detect association signals, followed by dissociation steps in wells containing 1× kinetic buffer. Human ROR1 hits-tagged protein (Acrobiosystems, #RO1-H522y) was diluted from 80 nM to 5 nM; the association phase was 180 seconds, and the dissociation phase was 600 seconds. The sensorgrams were recorded and the reference signals were subtracted before curve fitting using ForteBio Data Analysis 11.0 software. Association rates (kₒₙ) and dissociation rates (kdis) were calculated using a simple one-to-one Langmuir binding model. The equilibrium dissociation constant (KD) was calculated as the ratio of kdis/kₒₙ.

The target is the same in assay [18]. The experiment in a line: BLI in-tandem, row = 1st Ab; competitor (2nd Ab): PR007417.
Source text: as §4

The target is the same in assay [19]. The experiment in a line: BLI in-tandem, row = 1st Ab; competitor (2nd Ab): PR000374.
Source text: as §4

Assay [20] has the same target. The experiment in a line: BLI in-tandem, row = 1st Ab; competitor (2nd Ab): PR007424.
Source text: as §4

For assay [21] the target is unchanged. The experiment in a line: BLI in-tandem, row = 1st Ab; competitor (2nd Ab): PR005340.
Source text: as §4

T2 sequence (Q01973 30-406): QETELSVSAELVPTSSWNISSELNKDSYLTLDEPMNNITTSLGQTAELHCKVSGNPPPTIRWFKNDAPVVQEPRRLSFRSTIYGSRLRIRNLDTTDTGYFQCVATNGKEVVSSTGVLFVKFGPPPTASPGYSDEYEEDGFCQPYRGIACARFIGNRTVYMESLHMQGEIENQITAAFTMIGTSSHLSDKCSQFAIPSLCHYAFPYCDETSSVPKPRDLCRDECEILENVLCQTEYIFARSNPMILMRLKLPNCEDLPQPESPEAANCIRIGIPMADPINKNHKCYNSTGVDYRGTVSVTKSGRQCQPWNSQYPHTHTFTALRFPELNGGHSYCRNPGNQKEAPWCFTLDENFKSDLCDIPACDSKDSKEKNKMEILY
T1 sequence (Q01973 30-937): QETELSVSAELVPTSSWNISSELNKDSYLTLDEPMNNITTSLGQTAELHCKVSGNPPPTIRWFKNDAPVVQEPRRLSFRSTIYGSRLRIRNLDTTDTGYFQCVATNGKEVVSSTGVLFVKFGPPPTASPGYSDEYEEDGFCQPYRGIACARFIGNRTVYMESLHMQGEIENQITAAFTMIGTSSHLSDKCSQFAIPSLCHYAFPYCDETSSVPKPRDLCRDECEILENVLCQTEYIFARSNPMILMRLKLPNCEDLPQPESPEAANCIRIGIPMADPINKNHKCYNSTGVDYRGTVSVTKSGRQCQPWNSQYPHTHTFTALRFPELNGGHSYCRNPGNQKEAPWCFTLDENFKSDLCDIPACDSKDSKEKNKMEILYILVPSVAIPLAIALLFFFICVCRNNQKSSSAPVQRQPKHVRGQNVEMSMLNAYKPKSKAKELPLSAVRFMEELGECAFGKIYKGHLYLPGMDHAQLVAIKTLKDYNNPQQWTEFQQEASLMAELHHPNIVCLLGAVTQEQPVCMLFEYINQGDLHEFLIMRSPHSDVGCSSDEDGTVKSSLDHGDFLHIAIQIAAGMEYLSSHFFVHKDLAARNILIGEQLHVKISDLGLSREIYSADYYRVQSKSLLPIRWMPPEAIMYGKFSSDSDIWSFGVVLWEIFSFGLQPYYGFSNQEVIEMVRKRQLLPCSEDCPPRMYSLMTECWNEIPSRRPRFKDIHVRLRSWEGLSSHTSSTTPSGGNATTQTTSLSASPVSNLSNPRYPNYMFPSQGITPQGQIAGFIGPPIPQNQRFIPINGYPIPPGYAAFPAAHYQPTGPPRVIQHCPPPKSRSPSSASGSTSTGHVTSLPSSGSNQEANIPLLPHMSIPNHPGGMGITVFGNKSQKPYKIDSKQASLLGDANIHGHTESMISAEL
T4 sequence (Q01974 34-403): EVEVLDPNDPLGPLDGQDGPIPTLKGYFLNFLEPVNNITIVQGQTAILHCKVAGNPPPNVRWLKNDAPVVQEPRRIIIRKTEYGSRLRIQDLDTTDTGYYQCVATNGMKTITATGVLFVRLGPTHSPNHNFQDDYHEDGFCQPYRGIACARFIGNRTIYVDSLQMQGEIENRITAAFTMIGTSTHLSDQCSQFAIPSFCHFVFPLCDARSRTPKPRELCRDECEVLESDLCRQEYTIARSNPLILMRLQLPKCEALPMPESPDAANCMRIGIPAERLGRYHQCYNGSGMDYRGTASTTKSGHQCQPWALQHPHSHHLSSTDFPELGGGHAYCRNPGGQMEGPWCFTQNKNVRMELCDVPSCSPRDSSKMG

B1: PR303201 (antibody, human IgG1, V domains shown)
VH: EVQLLESGGGLVQPGGSLRLSCAASGFTFSGNAMSWVRQAPGKGLEWVSAISGSGDKTYYAASVKGRFTISRDNSNNTVYLQMNSLRAEDTAVYYCEKGAFRTTMDYWGQGTLVTVSS
notes: HCAb (heavy chain-only, human IgG1 Fc), no light chain
As to B1, the EC50 in assay [1] came to 0.08 µg/mL; in assay [3], 0.057 µg/mL; in assay [5] it was 0.004 µg/mL; in [10], 0.066 µg/mL. For the same molecule, the “MAX(MFI)” value in [1] amounted to 1.23e+06 MFI; in assay [3], 1.07e+07 MFI; in [7], 935000 MFI; in assay [10], 1.55e+07 MFI. For the same molecule, the Kd in [2] turned out to be 4.89 nM. The koff in assay [2] came out at 0.00626 s⁻¹. In [2], this molecule returned a kon of 1.28e+06 M⁻¹ s⁻¹. In addition, the “EC50 (read off the curve)” value in assay [4] was around 0.004 µg/mL; in assay [6] it was around 0.06 µg/mL; in assay [9], around 0.06 µg/mL. In addition, the binding result in assay [8] was “no binding (tested: about 15 µg/ml)”.

B2: PR005351 (antibody, human IgG1, V domains shown)
VH: QVQLVESGGGLVKPGGSLRLSCAASGFKLSDFQMSWIRQAPGKGLEWVAYIDTNGSTRYYAESVKGRFTLSRDNVKNSLNLQMNGLRAEDTALYYCARIPSYTSSWYEDFDHWGQGTLVTVSS
notes: as for B1
B2: in [11], the “EC50 (read off the curve)” value was around 20 nM. The Max was 27500 in assay [12] and 10900 in assay [7].

B3: PR007417 (antibody, V domains shown)
VH: EVQLVESGGGLVKPGGSLRLSCAASGFTFSDFYMSWIRQAPGKGLEWISYISSSGSTRYYADSVKGRFTISRDNAKNSLYLQMNSLRAEDTAIYYCARDIPSSSSDWVDLQFDYWGQGTLVTVSS
notes: bivalent form (HCAb) variant of PR005340, no light chain
Molecule B3 registered a TOP in assay [13] of 83800. In assay [14], the “EC50 (read off the curve)” value was around 0.8 nM. The binding result in assay [15] was “no binding (tested: 37.5-600 nM)”. Further, the “Inhibition (%)” value stood at 114% in assay [16]; 113% in [18]; 10.2% in assay [19]; 111% in assay [20]; 116% in assay [21]. The molecule further had a Kd in [17] of 0.18 nM. This molecule returned a koff in assay [17] of 4.86e-05 s⁻¹. In assay [17], this molecule had a kon of 271000 M⁻¹ s⁻¹.

These data come from patent publication US20250257130A1 (NONA BIOSCIENCES SUZHOU, published 2025).
